For this experiment, the target named is env polypeptide of the LR1-C1 isolate (HIV-1 (variant of clade B primary isolate AC10)). As to the kind of experiment: virion capture assay, titration of virions on 4E10-coated plates, p24 ELISA. In general terms: An ELISA detects its analyte on a solid surface through an enzyme-linked reagent.

The values below come from US20140037667A1.

With 4E10 antibody, the fold increase in affinity against the AC10 wild-type variant stood at 4 fold.
